B1: PS3B913 (bispecific antibody, human IgG1, lambda, L234A L235A)
heavy 1: QVQLQQSGPRLVRPSQTLSLTCAISGDSVFNNNAAWSWIRQSPSRGLEWLGRTYYRSKWLYDYAVSVKSRITVNPDTSRNQFTLQLNSVTPEDTALYYCARGYSSSFDYWGQGTLVTVSSASTKGPSVFPLAPSSKSTSGGTAALGCLVKDYFPEPVTVSWNSGALTSGVHTFPAVLQSSGLYSLSSVVTVPSSSLGTQTYICNVNHKPSNTKVDKKVEPKSCDKTHTCPPCPAPEAAGGPSVFLFPPKPKDTLMISRTPEVTCVVVSVSHEDPEVKFNWYVDGVEVHNAKTKPREEQYNSTYRVVSVLTVLHQDWLNGKEYKCKVSNKALPAPIEKTISKAKGQPREPQVYTLPPSREEMTKNQVSLTCLVKGFYPSDIAVEWESNGQPENNYKTTPPVLDSDGSFLLYSKLTVDKSRWQQGNVFSCSVMHEALHNHYTQKSLSLSPG
light 1: QSALTQPASVSGSPGQSITISCTGTSSNIGTYKFVSWYQQHPDKAPKVLLYEVSKRPSGVSSRFSGSKSGNTASLTISGLQAEDQADYHCVSYAGSGTLLFGGGTKLTVLGQPKAAPSVTLFPPSSEELQANKATLVCLISDFYPGAVTVAWKADSSPVKAGVETTTPSKQSNNKYAASSYLSLTPEQWKSHRSYSCQVTHEGSTVEKTVAPTECS
heavy 2: not shown
light 2: not shown
B2: PS3B915 (bispecific antibody, human IgG1, lambda, L234A L235A)
heavy 1: B1 heavy 1
light 1: B1 light 1
heavy 2: not shown
light 2: not shown
B3: PS3B935 (bispecific antibody, human IgG1, kappa, lambda, L234A L235A)
heavy 1: EVQLVESGGGLVKPGGSLRLSCAASGFTFSRYNMNWVRQAPGKGLEWVSSISTSSNYIYYADSVKGRFTFSRDNAKNSLDLQMSGLRAEDTAIYYCTRGWGPFDYWGQGTLVTVSSASTKGPSVFPLAPSSKSTSGGTAALGCLVKDYFPEPVTVSWNSGALTSGVHTFPAVLQSSGLYSLSSVVTVPSSSLGTQTYICNVNHKPSNTKVDKKVEPKSCDKTHTCPPCPAPEAAGGPSVFLFPPKPKDTLMISRTPEVTCVVVSVSHEDPEVKFNWYVDGVEVHNAKTKPREEQYNSTYRVVSVLTVLHQDWLNGKEYKCKVSNKALPAPIEKTISKAKGQPREPQVYTLPPSREEMTKNQVSLTCLVKGFYPSDIAVEWESNGQPENNYKTTPPVLDSDGSFLLYSKLTVDKSRWQQGNVFSCSVMHEALHNHYTQKSLSLSP
light 1: DIQMTQSPSSLSASVGDRVTITCRARQSIGTAIHWYQQKPGKAPKLLIKYASESISGVPSRFSGSGSGTDFTLTISSLQPEDFATYYCQQSGSWPYTFGQGTKLEIKRTVAAPSVFIFPPSDEQLKSGTASVVCLLNNFYPREAKVQWKVDNALQSGNSQESVTEQDSKDSTYSLSSTLTLSKADYEKHKVYACEVTHQGLSSPVTKSFNRGEC
heavy 2: EVQLVESGGGLVQPGGSLRLSCAASGFTFSSYAMSWVRQAPGKGLEWVSAISGGSGSTYYADSVKGRFTISRDNSKNTLYLQMNSLRAEDSAVYYCAKDGVGATPYYFDYWGQGTLVTVSSASTKGPSVFPLAPSSKSTSGGTAALGCLVKDYFPEPVTVSWNSGALTSGVHTFPAVLQSSGLYSLSSVVTVPSSSLGTQTYICNVNHKPSNTKVDKKVEPKSCDKTHTCPPCPAPEAAGGPSVFLFPPKPKDTLMISRTPEVTCVVVSVSHEDPEVKFNWYVDGVEVHNAKTKPREEQYNSTYRVVSVLTVLHQDWLNGKEYKCKVSNKALPAPIEKTISKAKGQPREPQVYTLPPSREEMTKNQVSLTCLVKGFYPSDIAVEWESNGQPENNYKTTPPVLDSDGSFFLYSRLTVDKSRWQQGNVFSCSVMHEALHNHYTQKSLSLSPG
light 2: QSVLTQPPSVSAAPGQKVTISCSGSSSNIGINYVSWYQQLPGTAPKLLIYDNNKRPSGIPDRFSGSKSGTSATLGITGLQTGDEADYYCGTWDSSLSAVVFGGGTKLTVLGQPKAAPSVTLFPPSSEELQANKATLVCLISDFYPGAVTVAWKADSSPVKAGVETTTPSKQSNNKYAASSYLSLTPEQWKSHRSYSCQVTHEGSTVEKTVAPTECS

These binders were tested against Human PSMA on prostate cancer cell lines (C4-2B, 22RV1) (human, UniProt Q04609 1-750) (assay: cell-based or functional assay).
Chain of Human PSMA on prostate cancer cell lines (C4-2B, 22RV1) (Q04609 whole entry): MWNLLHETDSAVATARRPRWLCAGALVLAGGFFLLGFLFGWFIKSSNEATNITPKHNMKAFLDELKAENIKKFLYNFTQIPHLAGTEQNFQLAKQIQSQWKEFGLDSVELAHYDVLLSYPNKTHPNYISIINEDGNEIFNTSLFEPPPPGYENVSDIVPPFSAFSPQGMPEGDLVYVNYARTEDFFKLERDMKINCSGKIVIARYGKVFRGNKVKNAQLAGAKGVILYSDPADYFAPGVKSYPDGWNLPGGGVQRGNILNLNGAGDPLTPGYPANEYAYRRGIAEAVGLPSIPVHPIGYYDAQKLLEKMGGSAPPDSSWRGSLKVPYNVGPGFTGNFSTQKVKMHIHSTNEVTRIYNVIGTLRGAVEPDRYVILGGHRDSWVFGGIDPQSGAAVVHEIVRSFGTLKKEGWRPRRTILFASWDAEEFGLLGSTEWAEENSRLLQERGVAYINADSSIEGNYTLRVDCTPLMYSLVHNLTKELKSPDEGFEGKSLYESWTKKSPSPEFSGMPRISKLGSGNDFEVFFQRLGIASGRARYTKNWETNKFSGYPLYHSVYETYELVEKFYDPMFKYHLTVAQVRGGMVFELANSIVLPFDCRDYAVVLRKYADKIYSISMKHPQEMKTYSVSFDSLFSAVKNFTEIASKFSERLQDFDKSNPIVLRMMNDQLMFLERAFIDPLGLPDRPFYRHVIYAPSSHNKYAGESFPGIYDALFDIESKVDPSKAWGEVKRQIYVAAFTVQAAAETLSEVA
In the case of B1, the “Tumor killing EC50 [M] (C4-2B + PAN-T cells, 72 h, flow cytometry)” value (shortened to “Tumor killing EC50 [M]”) is reported as 3.11e-10 M. In the case of B2, the “Tumor killing EC50 [M]” value is reported as 1e-08 M. For B3, the “Tumor killing EC50 [M]” value was 7.16e-12 M.

These binders were tested against Human CD3 on T cells / Jurkat cells (human, UniProt P07766 23-207) (assay: cell-based or functional assay).
Chain of Human CD3 on T cells / Jurkat cells (P07766 23-207 limits assumed): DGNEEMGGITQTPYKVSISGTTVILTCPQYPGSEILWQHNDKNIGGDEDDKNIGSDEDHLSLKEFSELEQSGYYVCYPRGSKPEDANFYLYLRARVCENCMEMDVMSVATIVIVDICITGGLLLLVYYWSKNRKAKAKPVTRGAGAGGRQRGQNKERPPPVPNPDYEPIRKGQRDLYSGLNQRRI
With B1 the “T cell activation EC50 [M] (CD25+ T cells, C4-2B co-culture, 72 h)” value (“T cell activation EC50 [M]” below) was 1.55e-10 M. B2 was tested, and the “T cell activation EC50 [M]” value was 1e-08 M. With B3 the “T cell activation EC50 [M]” value was 6.72e-12 M.

— US20240059789A1 (Janssen / Centocor, published 2024)
